Target: the molecule itself
Test: size-exclusion chromatography of anti-FLAG affinity purified protein (self-association into a homodimer)
Procedure: Batch purification was performed using an anti-FLAG M2 affinity resin (Sigma-Aldrich, St. Louis, Mo., Cat. No. A2220), following the manufacturer's instructions. ADA2 were eluted from the resin using FLAG™ peptide. Purity of the eluted protein was assessed using SDS-PAGE and size-exclusion chromatography (SEC).

B1: WT recombinant human ADA2-FLAG polypeptide (enzyme)
chain: IDETRAHLLLKEKMMRLGGRLVLNTKEELANERLMTLKIAEMKEAMRTLIFPPSMHFFQAKHLIERSQVFNILRMMPKGAALHLHDIGIVTMDWLVRNVTYRPHCHICFTPRGIMQFRFAHPTPRPSEKCSKWILLEDYRKRVQNVTEFDDSLLRNFTLVTQHPEVIYTNQNVVWSKFETIFFTISGLIHYAPVFRDYVFRSMQEFYEDNVLYMEIRARLLPVYELSGEHHDEEWSVKTYQEVAQKFVETHPEFIGIKIIYSDHRSKDVAVIAESIRMAMGLRIKFPTVVAGFDLVGHEDTGHSLHDYKEALMIPAKDGVKLPYFFHAGETDWQGTSIDRNILDALMLNTTRIGHGFALSKHPAVRTYSWKKDIPIEVCPISNQVLKLVSDLRNHPVATLMATGHPMVISSDDPAMFGAKGLSYDFYEVFMGIGGMKADLRTLKQLAMNSIKYSTLLESEKNTFMEIWKKRWDKFIADVATKDYKDDDDK
notes: The only entry describes two identical subunits associating into the homodimer seen by SEC; Expressed in CHO-S cells and purified on anti-FLAG M2 resin; also called rHuADA2; rHuADA2-FLAG
- binding result: binds
